The text below walks through data of patent US20260015398A1.

The target in this test is strepII-flag-PLXA fusion protein displayed on engineered extracellular vesicles (strepII-flag-PLXA-EV) (Homo sapiens (Human)) (UniProt Q9UIW2). Description: in vitro co-incubation of EVs with FITC-streptactin (10000:1), nanoflow cytometry, share of FITC-positive EVs.
UniProt Q9UIW2, sequence (Q9UIW2 863-1316 limits assumed, change not shown): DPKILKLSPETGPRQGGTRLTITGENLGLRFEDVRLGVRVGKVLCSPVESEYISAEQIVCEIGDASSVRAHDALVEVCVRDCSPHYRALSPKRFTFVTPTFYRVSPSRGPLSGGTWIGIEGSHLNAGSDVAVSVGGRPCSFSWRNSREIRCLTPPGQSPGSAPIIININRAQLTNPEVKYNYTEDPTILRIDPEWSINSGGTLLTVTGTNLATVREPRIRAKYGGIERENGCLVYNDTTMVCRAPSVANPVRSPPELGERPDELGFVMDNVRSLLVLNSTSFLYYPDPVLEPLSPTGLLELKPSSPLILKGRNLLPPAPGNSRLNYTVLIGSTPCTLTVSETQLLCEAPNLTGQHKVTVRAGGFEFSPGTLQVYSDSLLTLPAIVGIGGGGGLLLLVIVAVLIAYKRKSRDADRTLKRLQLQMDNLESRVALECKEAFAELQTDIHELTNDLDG

As for FITC-streptactin, the positive rate turned out to be 73%.
